The assay deals with cyclin T1 (UniProt O60563). The assay can be described thus: co-immunoprecipitation (anti-Flag IP, western blot quantification). The settings on record: 293T cells, lysed at 48 h posttransfection; 12% SDS-PAGE; parent: est. 100; read off a plot.
Sequence of UniProt O60563 (O60563 whole entry): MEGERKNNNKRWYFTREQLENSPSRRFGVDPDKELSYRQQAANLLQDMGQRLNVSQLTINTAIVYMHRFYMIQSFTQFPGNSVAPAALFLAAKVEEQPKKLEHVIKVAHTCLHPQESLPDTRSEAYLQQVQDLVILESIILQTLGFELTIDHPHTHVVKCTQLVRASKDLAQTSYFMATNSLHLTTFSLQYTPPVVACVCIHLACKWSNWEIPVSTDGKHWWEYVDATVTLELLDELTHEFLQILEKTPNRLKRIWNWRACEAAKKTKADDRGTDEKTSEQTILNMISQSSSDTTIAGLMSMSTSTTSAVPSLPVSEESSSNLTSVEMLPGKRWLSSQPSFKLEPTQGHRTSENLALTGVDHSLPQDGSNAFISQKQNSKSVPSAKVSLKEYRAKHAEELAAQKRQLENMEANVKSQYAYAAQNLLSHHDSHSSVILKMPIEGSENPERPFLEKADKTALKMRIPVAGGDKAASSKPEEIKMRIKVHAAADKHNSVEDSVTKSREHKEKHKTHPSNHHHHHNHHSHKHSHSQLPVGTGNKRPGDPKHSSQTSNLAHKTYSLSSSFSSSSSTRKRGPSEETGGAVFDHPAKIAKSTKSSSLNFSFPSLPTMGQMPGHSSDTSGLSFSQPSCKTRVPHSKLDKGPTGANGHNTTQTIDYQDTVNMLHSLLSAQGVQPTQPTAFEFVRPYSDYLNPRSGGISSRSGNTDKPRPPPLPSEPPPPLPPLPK
As for Flag-tagged HIV-1 Tat (WT) S46D, the percent of parent is 22 % of WT Tat. Then Flag-tagged HIV-1 Tat (WT) S46A, with 45 % of WT Tat.

Take Flag-tagged HIV-1 Tat (WT) S16D: the percent of parent was 20 % of WT Tat.

As to Flag-tagged HIV-1 Tat (WT) S16A, the percent of parent was 48 % of WT Tat.
